Test system: serum uric acid (sUA)
Experiment: Serum uric acid (sUA) levels and sUA responders, open-label study of pegloticase with MTX (NCT03635957)
Type: in vivo, human
Method: The primary objective is to estimate the response rate during Month 6 (Weeks 20, 22, and 24), as measured by the sustained normalization of serum uric acid (SUA) to <6 mg/dL for at least 80% of the time during Month 6 in subjects receiving KXX with MTX.
The primary efficacy outcome endpoint is the sustained normalization of SUA to <6 mg/dL for at least 80% of the time during month 6 (weeks 20, 22, and 24) in subjects receiving KXX with MTX. This is slightly below the urate solubility threshold and this threshold has been the accepted standard for nearly all modern gout trials. Participants who achieve this endpoint were classified as “responders.” Serum uric acid (SUA) responders may also be defined as participants achieving and maintaining SUA <6 mg/dL for at least 80% of the time during Month 6 (Weeks 20, 22, and 24).
Blood samples may be collected prior to each pegloticase infusion for measurement of SUA levels using the Beckman Coulter AU System Uric Acid procedure. Participants were declared “non-responders” if there were SUA measures >6 mg/dL at 2 consecutive study visits beginning with the week 2 visit. […] If the SUA goal is not maintained before or at the 12-week mark, it was assumed that the participant had developed clinically relevant anti-pegloticase antibody and they received no further infusions. This assumption and subsequent discontinuation of pegloticase was consistent with the protocol of large phase III randomized controlled trials and the product label. A formal stopping rule was 2 occasions of SUA levels of greater than 6 mg/dL.
Clinical Chemistry—Blood samples were collected prior to each pegloticase infusion for measurement of SUA levels (primary efficacy parameter) using the Beckman Coulter AU System Uric Acid procedure. In this procedure uric acid is converted to hydrogen peroxide. Hydrogen peroxide reacts with reagent to produce a chromophore which is read bichromatically at 660/800 nm. The amount of dye formed is proportional to the uric acid concentration in the sample.
Serum samples for measurement of SUA levels were collected at the Screening Visit, the Week −4 Visit (prior to the first dose of MTX), and the Week −2 Visit during the MTX Run-in Period; within 48 hours prior to each pegloticase infusion and after the end of each pegloticase infusion prior to discharge from the site during the Pegloticase+IMM Period; at the non-infusion Week 52/End of Study/Early Termination Visits and at the Post Treatment 3 and 6 Month Follow-up Visits. Additional serum samples for SUA levels were collected at optional non-infusion (Frequent Sampling) Visits at Weeks 1 and 7. […] Subjects with SUA level >6 mg/dL at 2 consecutive visits beginning at Week 2 visit discontinued treatment, completed the End of Pegloticase Infusion Visit procedures within 2 weeks and continued the subject visits according to the protocol (without treatment).
Efficacy analyses were performed using the modified intention-to-treat (mITT) population, defined as all enrolled subjects who received ≥1 dose of pegloticase. The proportion of Month 6 responders was summarized, along with a 95% confidence interval for the proportion. The proportion of Month 3 and overall (Months 3 and 6 combined) responders was analyzed similarly.
A subject was declared a non-responder if the subject had SUA level >6 mg/dL at 2 consecutive study visits beginning with the Week 2 Visit. In addition, a subject who withdraws from study treatment for any reason after the first dose of pegloticase in the KXX+MTX Period and prior to Month 6 (for the primary endpoint) or Month 3 (for the secondary endpoint) was considered a non-responder if SUA values were not collected at the planned time points.
Patients were administered oral MTX (15 mg/week) and folate (1 mg/day) 4 weeks prior to the first pegloticase infusion (Day 1) and throughout the pegloticase treatment period. […]

[1] = Week 2 - Pre-Infusion, Month 6 sUA Non-Responders
[2] = Week 2 - Pre-Infusion, Month 6 sUA Responders
[3] = Week 2 - Pre-Infusion, mITT, n=14
[4] = Week 4 - Post-Infusion, Month 6 sUA Non-Responders
[5] = Week 4 - Post-Infusion, Month 6 sUA Responders
[6] = Week 4 - Post-Infusion, mITT, n=13
[7] = Week 4 - Pre-Infusion, Month 6 sUA Non-Responders
[8] = Week 4 - Pre-Infusion, Month 6 sUA Responders
[9] = Week 4 - Pre-Infusion, mITT, n=14
[10] = Week 6 - Post-Infusion, Month 6 sUA Non-Responders
[11] = Week 6 - Post-Infusion, Month 6 sUA Responders
[12] = Week 6 - Post-Infusion, mITT, n=12
[13] = Week 6 - Pre-Infusion, Month 6 sUA Non-Responders

B1: pegloticase (protein)
chain: TYKKNDEVEFVRTGYGKDMIKVLHIQRDGKYHSIKEVATTVQLTLSSKKDYLHGDNSDVIPTDTIKNTVNVLAKFKGIKSIETFAVTICEHFLSSFKHVIRAQVYVEEVPWKRFEKNGVKHVHAFIYTPTGTHFCEVEQIRNGPPVIHSGIKDLKVLKTTQSGFEGFIKDQFTTLPEVKDRCFATQVYCKWRYHQGRDVDFEATWDTVRSIVLQKFAGPYDKGEYSPSVQKTLYDIQVLTLGQVPEIEDMEISLPNIHYLNIDMSKMGLINKEEVLLPLDNPYGKITGTVKRKLSSRL
modifications: monomethoxy PEG conjugated; Krystexxa Sequence
notes: covalent conjugate of uricase produced by a genetically modified strain of Escherichia coli and monomethoxypoly (ethylene glycol)
In the case of B1, the “sUA < 6 mg/dL, %” value [1] is reported as “(66.7%)”, the “sUA Change from Baseline, Mean” value [1] is reported as -5.17 mg/dL and the “sUA Change from Baseline, Median” value [1] is reported as -5.70 mg/dL. The “sUA Observed, Mean” value [1] was 3.57 mg/dL, the “sUA Observed, Median” value [1] was 2.70 mg/dL and the “sUA < 6 mg/dL, %” value [2] was “(100%)”. For the same molecule, the “sUA Change from Baseline, Mean” value [2] was -8.64 mg/dL, the “sUA Change from Baseline, Median” value [2] was -8.80 mg/dL and the “sUA Observed, Mean” value [2] was 0.63 mg/dL. The “sUA Observed, Median” value [2] was 0.30 mg/dL, the “sUA < 6 mg/dL, n (%)” value [3] was 13 (92.9%) and the “sUA Change from Baseline, Mean (SD)” value [3] was −7.90 (2.878) mg/dL. For the same molecule, the “sUA Change from Baseline, Median” value [3] was -8.70 mg/dL, the “sUA Observed, Mean (SD)” value [3] was 1.26 (2.163) mg/dL and the “sUA Observed, Median” value [3] was 0.30 mg/dL. For the same molecule, the “sUA < 6 mg/dL, %” value [4] was “(100%)”, the “sUA Change from Baseline, Mean” value [4] was -8.60 mg/dL and the “sUA Change from Baseline, Median” value [4] was -8.60 mg/dL. The “sUA Observed, Mean” value [4] was 0.30 mg/dL, the “sUA Observed, Median” value [4] was 0.30 mg/dL and the “sUA < 6 mg/dL, %” value [5] was “(100%)”. For the same molecule, the “sUA Change from Baseline, Mean” value [5] was -8.97 mg/dL, the “sUA Change from Baseline, Median” value [5] was -8.80 mg/dL and the “sUA Observed, Mean” value [5] was 0.30 mg/dL. For the same molecule, the “sUA Observed, Median” value [5] was 0.30 mg/dL, the “sUA < 6 mg/dL, n (%)” value [6] was 13 (100%) and the “sUA Change from Baseline, Mean (SD)” value [6] was −8.92 (2.577) mg/dL. For the same molecule, the “sUA Change from Baseline, Median” value [6] was -8.80 mg/dL, the “sUA Observed, Mean (SD)” value [6] was 0.30 (0.000) mg/dL and the “sUA Observed, Median” value [6] was 0.30 mg/dL. The “sUA < 6 mg/dL, %” value [7] was “(33.3%)”, the “sUA Change from Baseline, Mean” value [7] was -3.70 mg/dL and the “sUA Change from Baseline, Median” value [7] was -1.80 mg/dL. The “sUA Observed, Mean” value [7] was 5.03 mg/dL, the “sUA Observed, Median” value [7] was 6.60 mg/dL and the “sUA < 6 mg/dL, %” value [8] was “(100%)”. The “sUA Change from Baseline, Mean” value [8] was -8.59 mg/dL, the “sUA Change from Baseline, Median” value [8] was -8.60 mg/dL and the “sUA Observed, Mean” value [8] was 0.68 mg/dL. The “sUA Observed, Median” value [8] was 0.30 mg/dL, the “sUA < 6 mg/dL, η (%)” value [9] was 12 (85.7%) and the “sUA Change from Baseline, Mean (SD)” value [9] was −7.54 (3.768) mg/dL. For the same molecule, the “sUA Change from Baseline, Median” value [9] was -8.00 mg/dL, the “sUA Observed, Mean (SD)” value [9] was 1.61 (2.637) mg/dL and the “sUA Observed, Median” value [9] was 0.30 mg/dL. The “sUA < 6 mg/dL, %” value [10] was “(100%)”, the “sUA Change from Baseline, Mean” value [10] was -9.10 mg/dL and the “sUA Change from Baseline, Median” value [10] was -9.10 mg/dL. The “sUA Observed, Mean” value [10] was 0.30 mg/dL, the “sUA Observed, Median” value [10] was 0.30 mg/dL and the “sUA < 6 mg/dL, %” value [11] was “(100%)”. For the same molecule, the “sUA Change from Baseline, Mean” value [11] was -8.97 mg/dL, the “sUA Change from Baseline, Median” value [11] was -8.80 mg/dL and the “sUA Observed, Mean” value [11] was 0.30 mg/dL. The “sUA Observed, Median” value [11] was 0.30 mg/dL, the “sUA < 6 mg/dL, n (%)” value [12] was 12 (100%) and the “sUA Change from Baseline, Mean (SD)” value [12] was −8.98 (2.679) mg/dL. For the same molecule, the “sUA Change from Baseline, Median” value [12] was -8.95 mg/dL, the “sUA Observed, Mean (SD)” value [12] was 0.30 (0.000) mg/dL and the “sUA Observed, Median” value [12] was 0.30 mg/dL. For the same molecule, the “sUA < 6 mg/dL, %” value [13] was “(50.0%)”, the “sUA Change from Baseline, Mean” value [13] was -4.65 mg/dL and the “sUA Change from Baseline, Median” value [13] was -4.65 mg/dL. For the same molecule, the “sUA Observed, Mean” value [13] was 4.25 mg/dL and the “sUA Observed, Median” value [13] was 4.25 mg/dL.

— patent US20220323445A1, “REDUCING IMMUNOGENICITY TO PEGLOTICASE” (Horizon Therapeutics Ireland DAC, priority 2020, published 2022)
